Laboratory results taken from publication PMC6588460.

Target: AKAP95 (human (endogenous in HEK293T)) (UniProt O43823)
Assay: proximity ligation

UniProt O43823, sequence (O43823 whole entry): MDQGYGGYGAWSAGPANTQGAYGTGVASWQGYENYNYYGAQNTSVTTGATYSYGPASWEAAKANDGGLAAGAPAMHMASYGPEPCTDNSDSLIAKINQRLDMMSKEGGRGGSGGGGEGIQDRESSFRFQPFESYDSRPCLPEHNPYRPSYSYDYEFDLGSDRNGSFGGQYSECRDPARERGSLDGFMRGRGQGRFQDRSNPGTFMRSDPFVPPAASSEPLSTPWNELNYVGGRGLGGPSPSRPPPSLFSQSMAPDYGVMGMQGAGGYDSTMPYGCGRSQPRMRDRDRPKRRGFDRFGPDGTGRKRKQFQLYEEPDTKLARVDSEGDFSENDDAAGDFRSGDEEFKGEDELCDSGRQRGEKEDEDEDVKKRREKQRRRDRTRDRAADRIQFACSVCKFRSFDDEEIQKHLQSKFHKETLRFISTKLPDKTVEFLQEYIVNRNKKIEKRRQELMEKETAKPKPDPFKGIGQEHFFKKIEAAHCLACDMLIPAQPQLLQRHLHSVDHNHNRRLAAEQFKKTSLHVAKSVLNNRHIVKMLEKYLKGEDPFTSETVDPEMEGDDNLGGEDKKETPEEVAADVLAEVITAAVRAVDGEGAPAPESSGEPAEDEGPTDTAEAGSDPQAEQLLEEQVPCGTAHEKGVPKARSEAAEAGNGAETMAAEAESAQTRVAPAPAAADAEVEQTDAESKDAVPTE

PLA dots per nuclei (dots per nuclei): 3.8
Substance: PDE4D5 (enzyme)
